From PMC3229523, “Identification of Lactoferricin B Intracellular Targets Using an Escherichia coli Proteome Chip” (PLoS ONE, 2011)
Ends that are not written are not given here. * marks the point of attachment. Biotin = O=C1N[C@H]2[C@H](CS[C@H]2CCCCC(=O)*)N1

Assays:
Experiment in all cases: peptide or protein array; E. coli proteome chip: purified His-tagged proteins printed in duplicate on Fullmoon slides, blocked with 1% BSA; 10 nM N-terminal biotinylated LfcinB with 1% BSA, room temperature, 1 h; detected with DyLight 649-labeled streptavidin, ratio to DyLight 549-labeled anti-His antibody; ProCAT normalisation, local cut-off; triplicate chips
Conditions in all cases: both partners purified
[1] = target: T1, YdaW (E. coli K-12, UniProt P76066 1-186)
T1 construct: YdaW, E. coli K-12
T1 sequence (looked up): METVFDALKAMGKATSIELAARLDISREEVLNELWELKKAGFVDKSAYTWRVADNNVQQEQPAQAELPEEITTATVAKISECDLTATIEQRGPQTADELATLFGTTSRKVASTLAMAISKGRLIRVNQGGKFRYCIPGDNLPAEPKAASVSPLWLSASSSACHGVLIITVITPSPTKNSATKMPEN

[2] = target: T2, RecC (E. coli K-12, UniProt P07648 1-1122)
T2 construct: RecC, E. coli K-12
T2 sequence (looked up): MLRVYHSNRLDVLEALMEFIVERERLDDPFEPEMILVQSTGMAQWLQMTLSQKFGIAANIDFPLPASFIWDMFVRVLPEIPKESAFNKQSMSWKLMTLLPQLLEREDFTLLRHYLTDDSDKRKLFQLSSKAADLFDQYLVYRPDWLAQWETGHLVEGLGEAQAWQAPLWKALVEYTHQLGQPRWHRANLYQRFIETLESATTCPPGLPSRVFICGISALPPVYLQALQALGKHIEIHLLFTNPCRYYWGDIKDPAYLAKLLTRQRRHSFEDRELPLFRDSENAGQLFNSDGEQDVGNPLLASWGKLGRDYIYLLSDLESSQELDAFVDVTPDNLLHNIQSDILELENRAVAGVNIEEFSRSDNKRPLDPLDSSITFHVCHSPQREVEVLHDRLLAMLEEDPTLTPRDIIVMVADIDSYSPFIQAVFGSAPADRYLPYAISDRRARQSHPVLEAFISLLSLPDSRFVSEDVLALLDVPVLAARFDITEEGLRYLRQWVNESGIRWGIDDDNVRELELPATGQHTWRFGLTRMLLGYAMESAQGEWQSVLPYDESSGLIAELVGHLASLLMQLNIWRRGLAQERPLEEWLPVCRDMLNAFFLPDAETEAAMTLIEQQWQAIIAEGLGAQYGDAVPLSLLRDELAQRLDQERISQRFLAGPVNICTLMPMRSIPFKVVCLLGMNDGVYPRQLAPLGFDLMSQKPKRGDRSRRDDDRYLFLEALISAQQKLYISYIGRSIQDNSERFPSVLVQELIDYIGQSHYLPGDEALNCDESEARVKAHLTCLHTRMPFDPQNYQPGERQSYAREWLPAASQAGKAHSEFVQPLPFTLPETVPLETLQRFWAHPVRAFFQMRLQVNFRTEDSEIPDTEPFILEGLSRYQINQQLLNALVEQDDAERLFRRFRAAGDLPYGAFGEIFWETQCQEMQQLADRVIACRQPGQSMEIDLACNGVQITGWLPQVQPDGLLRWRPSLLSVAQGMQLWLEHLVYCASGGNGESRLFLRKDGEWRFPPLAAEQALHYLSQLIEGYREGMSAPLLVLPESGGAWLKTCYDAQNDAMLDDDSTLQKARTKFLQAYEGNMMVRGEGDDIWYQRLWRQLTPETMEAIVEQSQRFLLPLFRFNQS

[3] = target: T3, YciW (E. coli K-12, UniProt P76035 1-375)
T3 construct: YciW, E. coli K-12
T3 sequence (looked up): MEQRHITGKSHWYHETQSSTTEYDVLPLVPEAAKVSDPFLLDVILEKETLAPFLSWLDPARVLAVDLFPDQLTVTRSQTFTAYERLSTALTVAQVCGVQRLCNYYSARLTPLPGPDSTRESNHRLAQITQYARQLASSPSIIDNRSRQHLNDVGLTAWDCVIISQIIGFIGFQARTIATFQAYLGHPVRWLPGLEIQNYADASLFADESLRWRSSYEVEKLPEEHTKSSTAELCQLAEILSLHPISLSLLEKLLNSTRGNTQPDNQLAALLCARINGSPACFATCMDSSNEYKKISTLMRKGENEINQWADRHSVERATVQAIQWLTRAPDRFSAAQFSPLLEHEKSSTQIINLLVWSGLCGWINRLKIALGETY

[4] = target: T4, MdoG (E. coli K-12, UniProt P33136 23-511)
T4 construct: MdoG, E. coli K-12
T4 sequence (looked up): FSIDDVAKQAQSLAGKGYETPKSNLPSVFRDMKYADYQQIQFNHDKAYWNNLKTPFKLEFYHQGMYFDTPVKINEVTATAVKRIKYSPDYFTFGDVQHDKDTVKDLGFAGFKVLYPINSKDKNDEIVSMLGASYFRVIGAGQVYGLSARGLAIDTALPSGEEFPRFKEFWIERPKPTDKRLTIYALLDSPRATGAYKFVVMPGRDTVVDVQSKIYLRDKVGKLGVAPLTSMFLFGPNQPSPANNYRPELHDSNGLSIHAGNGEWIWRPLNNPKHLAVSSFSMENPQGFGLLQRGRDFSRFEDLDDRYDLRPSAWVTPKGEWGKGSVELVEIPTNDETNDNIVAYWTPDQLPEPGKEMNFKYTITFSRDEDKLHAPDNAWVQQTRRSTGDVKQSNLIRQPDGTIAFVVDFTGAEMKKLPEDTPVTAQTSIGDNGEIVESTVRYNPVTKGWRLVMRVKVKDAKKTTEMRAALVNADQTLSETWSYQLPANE

[5] = target: RplW (E. coli K-12, UniProt P0ADZ0 1-100)

Measured: binding result

B1: N-terminal biotinylated Lactoferricin B (peptide, UniProt P24627 36-60, looked up)
peptide: Biotin-FKCRRWQWRMKKLGAPSITCVRRAF
modifications: ends and bridges not checked
notes: lactoferricin B (LfcinB), cationic antimicrobial peptide of 25 amino acids; also called biotinylated LfcinB; biotin-labeled LfcinB; source: bought: Kelowna Inc
binds: [1] | [2] | [3] | [4] | [5]
